{
  "source": "paper PMC9010429",
  "about": "“Validation of a small molecule inhibitor of PDE6D-RAS interaction with favorable anti-leukemic effects” (Blood Cancer Journal, 2022)",
  "binders": {"B1": {"name": "Truncated recombinant human Tiam1 (R1033-E1406) (domain or fragment)", "chain": "RQLSDADKLRKVICELLETERTYVKDLNCLMERYLKPLQKETFLTQDELDVLFGNLTEMVEFQVEFLKTLEDGVRLVPDLEKLEKVDQFKKVLFSLGGSFLYYADRFKLYSAFCASHTKVPKVLVKAKTDTAFKAFLDAQNPKQQHSSTLESYLIKPIQRILKYPLLLRELFALTDAESEEHYHLDVAIKTMNKVASHINEMQKIHEEFGAVFDQLIAEQTGEKKEVADLSMGDLLLHTTVIWLNPPASLGKWKKEPELAAFVFKTAVVLVYKDGSKQKKKLVGSHRLSIYEDWDPFRFRHMIPTEALQVRALASADAEANAVCEIVHVKSESEGRPERVFHLCCSSPESRKDFLKAVHSILRDKHRRQLLKTE", "notes": "human Tiam1, residues R1033-E1406, pTriIJ-HV vector; also called FLAG-tagged Tiam1; not shown: FLAG, N-terminal, kept"}},
  "biological_target": "Recombinant human Rac1 (Q2-L177) (human, UniProt P63000 2-177)",
  "test": "AlphaScreen or HTRF; 30 nM His-Rac1 pre-incubated with compound 30 min at room temperature, then 300 nM FLAG-Tiam1, 2 nM anti-His-Eu3+, 20 nM anti-FLAG-XL665; 50 mM Hepes pH 7.6, 100 mM NaCl, 1 mM DTT, 10 mM MgCl2, 0.1% Nonidet P-40; titration of NSC23766, DW0069 or DW0254",
  "details": "both partners purified",
  "data": [
    {"binder": "B1", "values": [
      {"measurement": "binding result", "result": "binds"}
    ]}
  ]
}
